Here are results for one molecule from US20080025968A1 (YEDA RESEARCH AND DEVELOPMENT, published 2008).

The target of assay [1] is T1, myc-NIK (NIK N-terminally fused to the myc tag) (human, UniProt Q99558 1-947).
T1 construct: Expressed in HEK293T cells for co-immunoprecipitation, the reporter test and the kinase test; also called myc-tagged NIK; wild type NIK
Nature of the assay: western blot of the p55 TNF receptor complex from NIK-deficient Ramos cells replenished with NIK (FIG. 6d). The method, then:
Transfections, immunoblotting and immunoprecipitations were performed as described in Example 2 and Example 3 of the Examples section. For immunoprecipitation of the CD70/CD27 ligand-receptor complexes from resting PBMC and Ramos cells, cell lysates were prepared as described for the kinase tests aforementioned and incubated for 4 hours at 4° C. with 25 μl of 50% M2-FLAG agarose beads per ml of lysate. The TNF-receptor complex was precipitated as described (Zhang et al., 2000). The signalosome from cell lysates was immunoprecipitated using a 1:1 mixture of two different antibodies against IKK1 (M-280 and H-744, Santa Cruz). Immunoprecipitation was allowed to continue for 2 hours at 4° C., using 10 μg of anti-IKKα antibodies adsorbed to 25 μl of 50% protein-A-Sepharose beads per ml of lysate.
In NIK− cells, recruitment to the p55 TNF receptor occurred just as effectively as in the wild type cells (FIG. 6c, right panel). In contrast, recruitment of the signalosome components to CD27 was completely abolished (FIGS. 6c, d, left panels). Introduction of the wild type NIK, but not of “kinase-dead” NIK, to the NIK− cells reintated the recruitment in response to CD70 (FIG. 6d, middle and right panels). […] This recruitment could be observed both in cells expressing the wild type enzyme and in those that expressed its “[…]” mutant (FIG. 6d). […]
On the technique in general: Immunoblotting shows a protein as a band on a membrane.

For a further assay, the target named is T2, IKK1, endogenous (human, UniProt O15111 1-745).
T2 construct: mature; also called IKKα
T2 sequence (looked up): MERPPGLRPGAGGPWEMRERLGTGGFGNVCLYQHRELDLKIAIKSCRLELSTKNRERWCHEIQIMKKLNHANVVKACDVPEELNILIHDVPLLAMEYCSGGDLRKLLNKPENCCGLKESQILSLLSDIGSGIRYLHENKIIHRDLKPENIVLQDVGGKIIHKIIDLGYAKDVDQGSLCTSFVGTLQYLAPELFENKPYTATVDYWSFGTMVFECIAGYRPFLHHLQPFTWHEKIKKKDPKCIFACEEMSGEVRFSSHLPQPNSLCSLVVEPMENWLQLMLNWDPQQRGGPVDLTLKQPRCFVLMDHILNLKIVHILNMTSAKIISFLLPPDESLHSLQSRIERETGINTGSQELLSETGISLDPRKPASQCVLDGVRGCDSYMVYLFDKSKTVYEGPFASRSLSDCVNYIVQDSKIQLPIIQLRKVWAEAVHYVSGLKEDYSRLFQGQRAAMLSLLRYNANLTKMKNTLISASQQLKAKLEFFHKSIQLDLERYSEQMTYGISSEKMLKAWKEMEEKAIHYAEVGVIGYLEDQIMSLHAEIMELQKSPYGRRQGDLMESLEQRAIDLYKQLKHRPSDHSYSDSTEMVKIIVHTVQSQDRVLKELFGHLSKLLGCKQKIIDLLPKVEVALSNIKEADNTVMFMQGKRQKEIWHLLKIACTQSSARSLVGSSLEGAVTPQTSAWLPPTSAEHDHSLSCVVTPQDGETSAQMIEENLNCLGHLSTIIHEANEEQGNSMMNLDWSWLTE
The assay is described as follows: western blot of the p55 TNF receptor complex from Ramos cells after TNF (FIG. 5c).

Another assay has as its target T3, IKK2, endogenous (human, UniProt O14920 1-756).
T3 construct: mature; also called IKKβ
T3 sequence (looked up): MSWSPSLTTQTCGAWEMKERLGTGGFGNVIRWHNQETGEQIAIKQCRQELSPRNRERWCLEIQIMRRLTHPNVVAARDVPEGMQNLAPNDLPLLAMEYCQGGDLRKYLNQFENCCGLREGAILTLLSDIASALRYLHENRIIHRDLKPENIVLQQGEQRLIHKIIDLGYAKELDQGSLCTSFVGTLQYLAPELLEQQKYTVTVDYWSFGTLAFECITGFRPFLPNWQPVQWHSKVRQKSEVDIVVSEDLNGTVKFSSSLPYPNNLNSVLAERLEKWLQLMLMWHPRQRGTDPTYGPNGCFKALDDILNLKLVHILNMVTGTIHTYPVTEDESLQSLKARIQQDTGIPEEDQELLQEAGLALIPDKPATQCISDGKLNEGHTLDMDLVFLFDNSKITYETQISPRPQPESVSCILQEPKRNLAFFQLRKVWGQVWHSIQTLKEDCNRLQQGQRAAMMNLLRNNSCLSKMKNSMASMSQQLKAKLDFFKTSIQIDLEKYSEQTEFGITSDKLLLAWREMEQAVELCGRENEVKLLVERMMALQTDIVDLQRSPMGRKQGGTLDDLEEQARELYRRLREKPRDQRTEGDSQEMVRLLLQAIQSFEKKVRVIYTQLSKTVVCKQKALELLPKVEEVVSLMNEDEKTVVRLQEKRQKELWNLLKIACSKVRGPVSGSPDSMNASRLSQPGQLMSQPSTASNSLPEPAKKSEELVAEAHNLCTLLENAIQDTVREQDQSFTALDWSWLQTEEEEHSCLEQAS
The assay is described as above.

T1 sequence (Q99558 other isoform, or with tags, fused parts or gaps): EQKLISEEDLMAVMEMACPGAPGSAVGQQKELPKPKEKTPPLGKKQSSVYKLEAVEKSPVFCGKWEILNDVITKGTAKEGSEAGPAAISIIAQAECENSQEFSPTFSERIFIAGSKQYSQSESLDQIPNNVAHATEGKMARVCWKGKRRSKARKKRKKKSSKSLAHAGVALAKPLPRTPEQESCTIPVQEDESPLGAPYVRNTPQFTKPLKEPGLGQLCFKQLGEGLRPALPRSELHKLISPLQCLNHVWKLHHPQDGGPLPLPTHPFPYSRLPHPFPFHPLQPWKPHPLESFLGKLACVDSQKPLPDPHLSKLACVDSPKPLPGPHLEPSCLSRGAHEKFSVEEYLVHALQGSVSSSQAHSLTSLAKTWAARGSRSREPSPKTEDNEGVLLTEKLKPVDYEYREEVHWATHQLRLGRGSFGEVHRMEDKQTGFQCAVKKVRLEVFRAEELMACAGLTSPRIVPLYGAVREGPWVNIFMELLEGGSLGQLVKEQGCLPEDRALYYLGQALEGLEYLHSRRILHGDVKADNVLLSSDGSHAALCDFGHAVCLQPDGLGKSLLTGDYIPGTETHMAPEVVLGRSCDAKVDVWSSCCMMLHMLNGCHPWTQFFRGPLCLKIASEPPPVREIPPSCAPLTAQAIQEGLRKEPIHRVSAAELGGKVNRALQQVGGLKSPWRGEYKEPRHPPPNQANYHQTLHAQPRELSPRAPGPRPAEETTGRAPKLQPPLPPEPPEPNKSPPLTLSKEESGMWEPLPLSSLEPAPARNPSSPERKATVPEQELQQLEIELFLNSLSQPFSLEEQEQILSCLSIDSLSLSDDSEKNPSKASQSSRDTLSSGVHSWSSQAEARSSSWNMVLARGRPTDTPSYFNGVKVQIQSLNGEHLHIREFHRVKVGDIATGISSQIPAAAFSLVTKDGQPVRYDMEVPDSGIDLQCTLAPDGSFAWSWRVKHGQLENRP

B1: p55 TNF receptor, endogenous in Ramos cells (receptor, human, UniProt P19438 30-455, looked up)
chain: LVPHLGDREKRDSVCPQGKYIHPQNNSICCTKCHKGTYLYNDCPGPGQDTDCRECESGSFTASENHLRHCLSCSKCRKEMGQVEISSCTVDRDTVCGCRKNQYRHYWSENLFQCFNCSLCLNGTVHLSCQEKQNTVCTCHAGFFLRENECVSCSNCKKSLECTKLCLPQIENVKGTEDSGTTVLLPLVIFFGLCLLSLLFIGLMYRYQRWKSKLYSIVCGKSTPEKEGELEGTTTKPLAPNPSFSPTPGFTPTLGFSPVPSSTFTSSSTYTPGDCPNFAAPRREVAPPYQGADPILATALASDPIPNPLQKWEDSAHKPQSLDTDDPATLYAVVENVPPLRWKEFVRRLGLSDHEIDRLELQNGRCLREAQYSMLATWRRRTPRREATLELLGRVLRDMDLLGCLEDIEEALCGPAALPPAPSLLR
notes: whole, on cells; TNF-receptor complex precipitated as described by Zhang et al., 2000
In the case of B1, the binding result in assay [1] is recorded as “no binding”; in the assay with IKK1, endogenous it was “binds”; with IKK2, endogenous it was “binds”.
